Experimental data from PMC2930196.

Target: Phospholipid transfer protein (PLTP) in human plasma (human (endogenous in plasma)) (UniProt P55058)
Test: co-IP

Chain of UniProt P55058 (P55058 18-493): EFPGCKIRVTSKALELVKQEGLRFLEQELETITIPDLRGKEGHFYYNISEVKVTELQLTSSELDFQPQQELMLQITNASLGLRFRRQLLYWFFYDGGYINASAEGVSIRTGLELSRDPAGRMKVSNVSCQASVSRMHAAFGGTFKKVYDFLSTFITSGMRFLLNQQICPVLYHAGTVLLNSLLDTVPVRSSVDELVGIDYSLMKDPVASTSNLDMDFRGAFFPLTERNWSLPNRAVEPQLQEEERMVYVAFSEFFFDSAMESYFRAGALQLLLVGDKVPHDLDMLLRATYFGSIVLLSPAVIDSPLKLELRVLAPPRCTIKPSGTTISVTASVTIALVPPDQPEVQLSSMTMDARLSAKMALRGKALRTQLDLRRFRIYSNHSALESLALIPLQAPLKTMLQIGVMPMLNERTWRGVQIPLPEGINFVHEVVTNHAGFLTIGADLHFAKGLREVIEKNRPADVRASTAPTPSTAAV

molar ratio of clusterin, PLTP and apoA-I in the isolated PLTP complexes (ELISA): 5
Substance: Clusterin (apoJ) in human plasma (natural protein)
